# B1: SEQ ID NO 6: Mycobacterium massiliense carboxylate reductase, Genbank Accession No. EIV11143.1 (protein)
# chain: MTNETNPQQEQLSRRIESLRESDPQFRAAQPDPAVAEQVLRPGLHLSEAIAALMTGYAERPALGERARELVIDQDGRTTLRLLPRFDTTTYGELWSRTTSVAAAWHHDATHPVKAGDLVATLGFTSIDYTVLDLAIMILGGVAVPLQTSAPASQWTTILAEAEPNTLAVSIELIGAAMESVRATPSIKQVVVFDYTPEVDDQREAFEAASTQLAGTGIALETLDAVIARGAALPAAPLYAPSAGDDPLALLIYTSGSTGAPKGAMHSENIVRRWWIREDVMAGTENLPMIGLNFMPMSHIMGRGTLTSTLSTGGTGYFAASSDMSTLFEDMELIRPTALALVPRVCDMVFQRFQTEVDRRLASGDTASAEAVAAEVKADIRDNLFGGRVSAVMVGSAPLSEELGEFIESCFELNLTDGYGSTEAGMVFRDGIVQRPPVIDYKLVDVPELGYFSTDKPHPRGELLLKTDGMFLGYYKRPEVTASVFDADGFYMTGDIVAELAHDNIEIIDRRNNVLKLSQGEFVAVATLEAEYANSPVVHQIYVYGSSERSYLLAVVVPTPEAVAAAKGDAAALKTTIADSLQDIAKEIQLQSYEVPRDFIIEPQPFTQGNGLLTGIAKLARPNLKAHYGPRLEQMYAEIAEQQAAELRALHGVDPDKPALETVLKAAQALLGVSSAELAADAHFTDLGGDSLSALSFSDLLRDIFAVEVPVGVIVSAANDLGGVAKFVDEQRHSGGTRPTAETVHGAGHTEIRAADLTLDKFIDEATLHAAPSLPKAAGIPHTVLLTGSNGYLGHYLALEWLERLDKTDGKLIVIVRGKNAEAAYGRLEEAFDTGDTELLAHFRSLADKHLEVLAGDIGDPNLGLDADTWQRLADTVDVIVHPAALVNHVLPYNQLFGPNVVGTAEIIKLAITTKIKPVTYLSTVAVAAYVDPTTFDEESDIRLISAVRPIDDGYANGYGNAKWAGEVLLREAHDLCGLPVAVFRSDMILAHSRYTGQLNVPDQFTRLILSLIATGIAPGSFYQAQTTGERPLAHYDGLPGDFTAEAITTLGTQVPEGSEGFVTYDCVNPHADGISLDNFVDWLIEAGYPIARIDNYTEWFTRFDTAIRGLSEKQKQHSLLPLLHAFEQPSAAENHGVVPAKRFQHAVQAAGIGPVGQDGTTDIPHLSRRLIVKYAKDLEQLGLL
# modifications: Mycobacterium massiliense
# B2: SEQ ID NO 10: Pseudomonas syringae ω-transaminase, Genbank Accession No. AAY39893.1 (protein, listed as Pseudomonas syringae)
# chain: MSANNPQTLEWQALSSEHHLAPFSDYKQLKEKGPRIITRAEGVYLWDSEGNKILDGMSGLWCVAIGYGREELADAASKQMRELPYYNLFFQTAHPPVLELAKAISDIAPEGMNHVFFTGSGSEGNDTMLRMVRHYWALKGQPNKKTIISRVNGYHGSTVAGASLGGMTYMHEQGDLPIPGVVHIPQPYWFGEGGDMTPDEFGIWAAEQLEKKILELGVENVGAFIAEPIQGAGGVIVPPDSYWPKIKEILSRYDILFAADEVICGFGRTSEWFGSDFYGLRPDMMTIAKGLTSGYVPMGGLIVRDEIVAVLNEGGDFNHGFTYSGHPVAAAVALENIRILREEKIVERVRSETAPYLQKRLRELSDHPLVGEVRGVGLLGAIELVKDKTTRERYTDKGAGMICRTFCFDNGLIMRAVGDTMIIAPPLVISFAQIDELVEKARTCLDLTLAVLQG
# B3: SEQ ID NO 3: Mycobacterium smegmatis carboxylate reductase, Genbank Accession No. ABK71854.1 (protein, listed as Mycobacterium smegmatis)
# chain: MTSDVHDATDGVTETALDDEQSTRRIAELYATDPEFAAAAPLPAVVDAAHKPGLRLAEILQTLFTGYGDRPALGYRARELATDEGGRTVTRLLPRFDTLTYAQVWSRVQAVAAALRHNFAQPIYPGDAVATIGFASPDYLTLDLVCAYLGLVSVPLQHNAPVSRLAPILAEVEPRILTVSAEYLDLAVESVRDVNSVSQLVVFDHHPEVDDHRDALARAREQLAGKGIAVTTLDAIADEGAGLPAEPIYTADHDQRLAMILYTSGSTGAPKGAMYTEAMVARLWTMSFITGDPTPVINVNFMPLNHLGGRIPISTAVQNGGTSYFVPESDMSTLFEDLALVRPTELGLVPRVADMLYQHHLATVDRLVTQGADELTAEKQAGAELREQVLGGRVITGFVSTAPLAAEMRAFLDITLGAHIVDGYGLTETGAVTRDGVIVRPPVIDYKLIDVPELGYFSTDKPYPRGELLVRSQTLTPGYYKRPEVTASVFDRDGYYHTGDVMAETAPDHLVYVDRRNNVLKLAQGEFVAVANLEAVFSGAALVRQIFVYGNSERSFLLAVVVPTPEALEQYDPAALKAALADSLQRTARDAELQSYEVPADFIVETEPFSAANGLLSGVGKLLRPNLKDRYGQRLEQMYADIAATQANQLRELRRAAATQPVIDTLTQAAATILGTGSEVASDAHFTDLGGDSLSALTLSNLLSDFFGFEVPVGTIVNPATNLAQLAQHIEAQRTAGDRRPSFTTVHGADATEIRASELTLDKFIDAETLRAAPGLPKVTTEPRTVLLSGANGWLGRFLTLQWLERLAPVGGTLITIVRGRDDAAARARLTQAYDTDPELSRRFAELADRHLRVVAGDIGDPNLGLTPEIWHRLAAEVDLVVHPAALVNHVLPYRQLFGPNVVGTAEVIKLALTERIKPVTYLSTVSVAMGIPDFEEDGDIRTVSPVRPLDGGYANGYGNSKWAGEVLLREAHDLCGLPVATFRSDMILAHPRYRGQVNVPDMFTRLLLSLLITGVAPRSFYIGDGERPRAHYPGLTVDFVAEAVTTLGAQQREGYVSYDVMNPHDDGISLDVFVDWLIRAGHPIDRVDDYDDWVRRFETALTALPEKRRAQTVLPLLHAFRAPQAPLRGAPEPTEVFHAAVRTAKVGPGDIPHLDEALIDKYIRDLREFGLI
# Tests used:
# Assay type in all cases: biochemical
# [1] = Carboxylate reductase activity assay, N7-acetyl-7-aminoheptanoate to N7-acetyl-7-aminoheptanal (NADPH consumption); conditions: 2 mM N7-acetyl-7-aminoheptanoate, enhanced by gene product of sfp, room temperature, 20 min, against empty vector control, FIG. 12
# Procedure: The activity of each of the N-terminal His-tagged carboxylate reductases of SEQ ID NOs: 3, 6, and 7 (see Examples 4, and FIG. 7) for converting N7-acetyl-7-aminoheptanoate to N7-acetyl-7-aminoheptanal was assayed in triplicate in a buffer composed of a final concentration of 50 mM HEPES buffer (pH=7.5), 2 mM N7-acetyl-7-aminoheptanoate, 10 mM MgCl2, 1 mM ATP, and 1 mM NADPH. The assays were initiated by adding purified carboxylate reductase and phosphopantetheine transferase or the empty vector control to the assay buffer containing the N7-acetyl-7-aminoheptanoate then incubated at room temperature for 20 min. The consumption of NADPH was monitored by absorbance at 340 nm.
# [2] = ω-transaminase activity assay, reverse direction, 7-aminoheptanoate to pimelate semialdehyde; conditions: cell free extract, 10 mM 7-aminoheptanoate, 10 mM pyruvate, 25° C., 4 h, against empty vector control, FIG. 15
# Procedure: (§1) A sequence encoding an N-terminal His-tag was added to the genes from Chromobacterium violaceum, Pseudomonas syringae, Rhodobacter sphaeroides, and Vibrio Fluvialis encoding the ω-transaminases of SEQ ID NOs: 8, 10, 11 and 13, respectively (see FIG. 7) such that N-terminal HIS tagged ω-transaminases could be produced. Each of the resulting modified genes was cloned into a pET21a expression vector under control of the T7 promoter and each expression vector was transformed into a BL21[DE3] E. coli host. The resulting recombinant E. coli strains were cultivated at 37° C. in a 250 mL shake flask culture containing 50 mL LB media and antibiotic selection pressure, with shaking at 230 rpm. Each culture was induced overnight at 16° C. using 1 mM IPTG.
# (§2) The pellet from each induced shake flask culture was harvested via centrifugation. Each pellet was resuspended and lysed via sonication. The cell debris was separated from the supernatant via centrifugation and the cell free extract was used immediately in enzyme activity assays.
# Enzyme activity assays in the reverse direction (i.e., 7-aminoheptanoate to pimelate semialdehyde) were performed in a buffer composed of a final concentration of 50 mM HEPES buffer (pH=7.5), 10 mM 7-aminoheptanoate, 10 mM pyruvate and 100 μM pyridoxyl 5′ phosphate. Each enzyme activity assay reaction was initiated by adding cell free extract of the ω-transaminase gene product or the empty vector control to the assay buffer containing the 7-aminoheptanoate and incubated at 25° C. for 4 h, with shaking at 250 rpm. The formation of L-alanine from pyruvate was quantified via RP-HPLC.
# [3] = ω-transaminase activity assay, forward direction, pimelate semialdehyde to 7-aminoheptanoate
# Procedure: as §1, §2
# Enzyme activity in the forward direction (i.e., pimelate semialdehyde to 7-aminoheptanoate) was confirmed for the transaminases of SEQ ID NO 10, SEQ ID NO 11 and SEQ ID NO 13. Enzyme activity assays were performed in a buffer composed of a final concentration of 50 mM HEPES buffer (pH=7.5), 10 mM pimelate semialdehyde, 10 mM L-alanine and 100 μM pyridoxyl 5′ phosphate. Each enzyme activity assay reaction was initiated by adding a cell free extract of the ω-transaminase gene product or the empty vector control to the assay buffer containing the pimelate semialdehyde and incubated at 25° C. for 4 h, with shaking at 250 rpm. The formation of pyruvate was quantified via RP-HPLC.
# [4] = ω-transaminase activity assay, 7-aminoheptanol to 7-oxoheptanol
# Procedure: A nucleotide sequence encoding an N-terminal His-tag was added to the Chromobacterium violaceum, Pseudomonas syringae and Rhodobacter sphaeroides genes encoding the ω-transaminases of SEQ ID NOs: 8, 10 and 11, respectively (see FIG. 7) such that N-terminal HIS tagged ω-transaminases could be produced. The modified genes were cloned into a pET21a expression vector under the T7 promoter. Each expression vector was transformed into a BL21[DE3] E. coli host. Each resulting recombinant E. coli strain were cultivated at 37° C. in a 250 mL shake flask culture containing 50 mL LB media and antibiotic selection pressure, with shaking at 230 rpm. Each culture was induced overnight at 16° C. using 1 mM IPTG.
# as §2
# Enzyme activity assays in the reverse direction (i.e., 7-aminoheptanol to 7-oxoheptanol) were performed in a buffer composed of a final concentration of 50 mM HEPES buffer (pH=7.5), 10 mM 7-aminoheptanol, 10 mM pyruvate, and 100 μM pyridoxyl 5′ phosphate. Each enzyme activity assay reaction was initiated by adding cell free extract of the ω-transaminase gene product or the empty vector control to the assay buffer containing the 7-aminoheptanol and then incubated at 25° C. for 4 h, with shaking at 250 rpm. The formation of L-alanine was quantified via RP-HPLC.
Molecule,"carboxylate reductase activity for converting N7-acetyl-7-aminoheptanoate to N7-acetyl-7-aminoheptanal (NADPH consumption, absorbance at 340 nm) [1]",ω-transaminase activity for converting 7-aminoheptanoate to pimelate semialdehyde (pyruvate to L-alanine) [2],"ω-transaminase activity for converting pimelate semialdehyde to 7-aminoheptanoate (L-alanine to pyruvate) ([3]; cell free extract, 10 mM pimelate semialdehyde, 10 mM L-alanine, 25° C., 4 h, against empty vector control, FIG. 16)","reversibility of the ω-transaminase activity: pimelate semialdehyde accepted, 7-aminoheptanoate synthesized ([3]; conclusion from forward and reverse assays of Example 2)","ω-transaminase activity for converting 7-aminoheptanol to 7-oxoheptanol (pyruvate to L-alanine) ([4]; cell free extract, 10 mM 7-aminoheptanol, 10 mM pyruvate, 25° C., 4 h, against empty vector control, FIG. 19)","ω-transaminase acceptance of 7-oxoheptanol, forming 7-aminoheptanol ([4]; concluded from reversibility of the ω-transaminase activity (Example 2))"
B1,accepted N7-acetyl-7-aminoheptanoate as substrate,–,–,–,–,–
B2,–,accepted 7-aminoheptanote as substrate,accepted pimelate semialdehyde as substrate,accepted pimelate semialdehyde as substrate and synthesized 7-aminoheptanoate,accepted 7-aminoheptanol as substrate,accept 7-oxoheptanol as substrate
B3,accepted N7-acetyl-7-aminoheptanoate as substrate,–,–,–,–,–
